The series addresses Vaccinia DNA topoisomerase I (Vaccinia virus, UniProt P68698 P68698:1-314). The series can be described thus: covalent charging of vector at CCCTT, 37 C 15 min, NEB buffer 1; charged vector cloned the test insert with 93.6-95.1% efficiency. To be noted: ligated to EcoRI-cut pCR8/GW ends. As to the method: TOPO charging. To 5 μg of ligated DNA, 3 μg of TOPO-5 oligonucleotide (5'-CAACA CTATC GGAAT A-3' (SEQ ID NO: 66), phosphorylated on the 5' end), 10 μl 5× NEB #1 (New England Biolabs, Inc., Beverly, Mass. cat. no. M0202S), and 5 μg of Vaccinia Topoisomerase I was added and the volume adjusted to 50 μl with water. This reaction was incubated at 37° C. for 15 minutes before addition of 5 μl of 10× TOPO Stop Buffer (1 M Tris-HCl, pH 7.5, 500 mM EDTA). The TOPO adapted vector was then gel purified and quantified using the Hoechst dye assay.
Testing of TOPO cloning efficiency. TOPO cloning efficiency was determined using a 500 bp PCR fragment containing a bacterial lac promoter driving the lacZ alpha fragment, this positive control fragment is found in some of Invitrogen's TOPO T/A cloning kits, for example, cat. no. K4300-01. Cloning of this fragment generated blue colonies on X-gal plates and colonies without the cloned fragment were white. The ratio of the total number of blue colonies to the total number of colonies was representative of the efficiency of the TOPO reaction. Twenty nanograms of the Taq polymerase generated 500 bp PCR product was used per TOPO reaction.
T/A TOPO QC testing. The pCR8/GW/TOPO system was tested by TOPO cloning a Platinum taq-generated 500 bp test insert and selected ORFs into pCR8/GW/TOPO. TOPO cloning efficiency was measured using standard QC procedures. […]

This is an account of results in patent US8304189, “Nucleic acid molecules containing recombination sites and methods of using the same” (Life Technologies Corporation).

B1: TOPO adapter duplex (TOPO-1/TOPO-5/TOPO-4) (dsDNA)
DNA 1: AATTCGCCCTTATTCCGATAGTG
DNA 2: CAACACTATCGGAATA
DNA 3: AGGGCG
modifications: 5'-phosphate on TOPO-5
Turning to B1, the binding result was “binds”.
